Consider 17 molecules from paper PMC12796746, “Profiling the TRPV4 ankyrin repeat domain interactome and its disruption by neuromuscular disease-causing mutations” (The Journal of Biological Chemistry, 2025).

First the molecules themselves.
B1: 3-hydroxybutyrate dehydrogenase type 2 (natural protein, human, UniProt Q9BUT1 1-245, looked up)
chain: MGRLDGKVIILTAAAQGIGQAAALAFAREGAKVIATDINESKLQELEKYPGIQTRVLDVTKKKQIDQFANEVERLDVLFNVAGFVHHGTVLDCEEKDWDFSMNLNVRSMYLMIKAFLPKMLAQKSGNIINMSSVASSVKGVVNRCVYSTTKAAVIGLTKSVAADFIQQGIRCNCVCPGTVDTPSLQERIQARGNPEEARNDFLKRQKTGRFATAEEIAMLCVYLASDESAYVTGNPVIIDGGWSL
notes: human, spotted on the HuProt array; also called BDH2; source: bought: CDI Laboratories (HuProt v2.0 microarray)
B2: Huntingtin-interacting protein K (natural protein, human, UniProt Q9NX55 1-121, looked up)
chain: MATEGDVELELETETSGPERPPEKPRKHDSGAADLERVTDYAEEKEIQSSNLETAMSVIGDRRSREQKAKQEREKELAKVTIKKEDLELIMTEMEISRAAAERSLREHMGNVVEALIALTN
notes: human, spotted on the HuProt array; also called HYPK; source: bought: CDI Laboratories (HuProt v2.0 microarray)
B3: Protein N-terminal glutamine amidohydrolase (natural protein)
chain: not shown
notes: human, spotted on the HuProt array; also called WDYHV1; source: bought: CDI Laboratories (HuProt v2.0 microarray)
B4: Short coiled-coil protein (natural protein, human, UniProt Q9UIL1 1-159, looked up)
chain: MRRRVFSSQDWRASGWDGMGFFSRRTFCGRSGRSCRGQLVQVSRPEVSAGSLLLPAPQAEDHSSRILYPRPKSLLPKMMNADMDAVDAENQVELEEKTRLINQVLELQHTLEDLSARVDAVKEENLKLKSENQVLGQYIENLMSASSVFQTTDTKSKRK
notes: human, spotted on the HuProt array; also called SCOC; source: bought: CDI Laboratories (HuProt v2.0 microarray)
B5: Myosin light chain 1/3, skeletal muscle isoform (natural protein)
chain: not shown
notes: human, spotted on the HuProt array; also called MYL1; source: bought: CDI Laboratories (HuProt v2.0 microarray)
B6: Uncharacterized protein C6orf141 (natural protein, human, UniProt Q5SZD1 1-244, looked up)
chain: MNDPFARMETRGPQGAANPMDSSRSLGDLGPFPREVGRGAPLAPGARNPATAGASRSQGGGHEDRTADRALGPRAGEELDRESWVREKVLFLLHPERWLGTRGDPAREEVAGAEDLPHAGGEDHGEEPNYPSVFQRQKRISGRRVAPPRDAADPPKYVLVRVEDYQVTQEVLQTSWAKGRMTTRTEEHFVTALTFRSSREGQPGERWGPAESRALQARTGASRVHAAGRRVSPSPGTWLEEIKL
notes: human, spotted on the HuProt array; source: bought: CDI Laboratories (HuProt v2.0 microarray)
B7: Deoxycytidylate deaminase (natural protein, human, UniProt P32321 1-178, looked up)
chain: MSEVSCKKRDDYLEWPEYFMAVAFLSAQRSKDPNSQVGACIVNSENKIVGIGYNGMPNGCSDDVLPWRRTAENKLDTKYPYVCHAELNAIMNKNSTDVKGCSMYVALFPCNECAKLIIQAGIKEVIFMSDKYHDSDEATAARLLFNMAGVTFRKFIPKCSKIVIDFDSINSRPSQKLQ
notes: human, spotted on the HuProt array; also called DCTD; source: bought: CDI Laboratories (HuProt v2.0 microarray)
B8: Uncharacterized protein C4orf36 (natural protein, human, UniProt Q96KX1 1-117, looked up)
chain: MAYGVPRKNTVKTILRGSCYNVQEPWDIALLAKTWSTNLANIKLPFLEEISFGGSVQLTKCTTIKDGLLPSAESIKLEREYEVKRLCKLKCQENTSKEIQLLLRERPAGLRRPLPSK
notes: as for B6
B9: Ras-related protein Rab-7L1 (natural protein, human, UniProt O14966 1-203, looked up)
chain: MGSRDHLFKVLVVGDAAVGKTSLVQRYSQDSFSKHYKSTVGVDFALKVLQWSDYEIVRLQLWDIAGQERFTSMTRLYYRDASACVIMFDVTNATTFSNSQRWKQDLDSKLTLPNGEPVPCLLLANKCDLSPWAVSRDQIDRFSKENGFTGWTETSVKENKNINEAMRVLIEKMMRNSTEDIMSLSTQGDYINLQTKSSSWSCC
notes: human, spotted on the HuProt array; also called RAB29; source: bought: CDI Laboratories (HuProt v2.0 microarray)
B10: Protein FAM104B (natural protein, human, UniProt Q5XKR9 1-115, looked up)
chain: MGGCPVRKRRRNGSKEGNHHSTQPKRNKRNPIFQDSQDTEFSWSDNERSSSRINIPERASGPEGNLNQIVTEPDANFPQFLHEGLSKPVYVINWFMSFGPEIKLNTSQQGRNQAV
notes: as for B6
B11: Cysteine-rich DPF motif domain-containing protein 1 (natural protein, human, UniProt Q6NVV7 1-123, looked up)
chain: MASHVECRPLGVFECELCTLTAPYSYVGQKPPNTQSMVLLEESYVMKDPFTSDKDRFLVLGSCCSLCSRLVCVGPECSLFYSKRFCLPCVRENINAFPQEIRQDLEKRKAPSKRTPSQPGSRT
notes: human, spotted on the HuProt array; also called CDPF1; source: bought: CDI Laboratories (HuProt v2.0 microarray)
B12: ADP-ribosylation factor-like protein 10 (natural protein, human, UniProt Q8N8L6 1-244, looked up)
chain: MAPRPLGPLVLALGGAAAVLGSVLFILWKTYFGRGRERRWDRGEAWWGAEAARLPEWDEWDPEDEEDEEPALEELEQREVLVLGLDGAGKSTFLRVLSGKPPLEGHIPTWGFNSVRLPTKDFEVDLLEIGGSQNLRFYWKEFVSEVDVLVFVVDSADRLRLPWARQELHKLLDKDPDLPVVVVANKQDLSEAMSMGELQRELGLQAIDNQREVFLLAASIAPAGPTFEEPGTVHIWKLLLELLS
notes: human, spotted on the HuProt array; also called ARL10; source: bought: CDI Laboratories (HuProt v2.0 microarray)
B13: Polyadenylate-binding protein-interacting protein 2 (natural protein, human, UniProt Q9BPZ3 1-127, looked up)
chain: MKDPSRSSTSPSIINEDVIINGHSHEDDNPFAEYMWMENEEEFNRQIEEELWEEEFIERCFQEMLEEEEEHEWFIPARDLPQTMDQIQDQFNDLVISDGSSLEDLVVKSNLNPNAKEFVPGVKYGNI
notes: human, spotted on the HuProt array; also called PAIP2; source: bought: CDI Laboratories (HuProt v2.0 microarray)
B14: Small proline-rich protein 2B (natural protein, human, UniProt P35325 1-72, looked up)
chain: MSYQQQQCKQPCQPPPVCPTPKCPEPCPPPKCPEPCPPPKCPQPCPPQQCQQKYPPVTPSPPCQPKYPPKSK
notes: human, spotted on the HuProt array; also called SPRR2B; source: bought: CDI Laboratories (HuProt v2.0 microarray)
B15: Centrin-3 (natural protein, human, UniProt O15182 1-167, looked up)
chain: MSLALRSELVVDKTKRKKRRELSEEQKQEIKDAFELFDTDKDEAIDYHELKVAMRALGFDVKKADVLKILKDYDREATGKITFEDFNEVVTDWILERDPHEEILKAFKLFDDDDSGKISLRNLRRVARELGENMSDEELRAMIEEFDKDGDGEINQEEFIAIMTGDI
notes: human, spotted on the HuProt array; also called CETN3; source: bought: CDI Laboratories (HuProt v2.0 microarray)
B16: 14-3-3 protein eta (natural protein, human, UniProt Q04917 1-246, looked up)
chain: MGDREQLLQRARLAEQAERYDDMASAMKAVTELNEPLSNEDRNLLSVAYKNVVGARRSSWRVISSIEQKTMADGNEKKLEKVKAYREKIEKELETVCNDVLSLLDKFLIKNCNDFQYESKVFYLKMKGDYYRYLAEVASGEKKNSVVEASEAAYKEAFEISKEQMQPTHPIRLGLALNFSVFYYEIQNAPEQACLLAKQAFDDAIAELDTLNEDSYKDSTLIMQLLRDNLTLWTSDQQDEEAGEGN
notes: human, spotted on the HuProt array; also called YWHAH; source: bought: CDI Laboratories (HuProt v2.0 microarray)
B17: OTUB2 (on the HuProt array) (enzyme, human, UniProt Q96DC9 1-234, looked up)
chain: MSETSFNLISEKCDILSILRDHPENRIYRRKIEELSKRFTAIRKTKGDGNCFYRALGYSYLESLLGKSREIFKFKERVLQTPNDLLAAGFEEHKFRNFFNAFYSVVELVEKDGSVSSLLKVFNDQSASDHIVQFLRLLTSAFIRNRADFFRHFIDEEMDIKDFCTHEVEPMATECDHIQITALSQALSIALQVEYVDEMDTALNHHVFPEAATPSVYLLYKTSHYNILYAADKH
notes: deubiquitinase OTUB2, human, spotted on the HuProt array; source: bought: CDI Laboratories (HuProt v2.0 microarray)

The target of the first test is T1, TRPV4^WT-ARD (amino acids 149-397) (human, UniProt Q9HBA0 149-397).
T1 construct: TRPV4, human, ankyrin repeat domain, amino acids 149-397; source: E. coli BL21(DE3), purified; not shown: His6, C-terminal, kept; V5, C-terminal, kept
As to the kind of experiment: peptide or protein array; HuProt Human Proteome Microarray v2.0, full-length human proteins spotted in duplicate; V5-tagged TRPV4 protein in solution at 1 μM, 1 h at 4 °C, 150 mM NaCl, 2.7 mM KCl, 25 mM Trizma base, 0.05% Tween-20, pH 7.4; detected with Alexa Fluor 647 anti-V5; hit: z-score >= 2 (N terminus: both of 2 slides; ARD constructs: at least 2 of 3 slides). The settings on record: both partners purified.
For B1, the binding result was “binds”. In the case of B2, the binding result is recorded as “binds”. Same read-out and setting: the entry for B3 is “binds”; for B4 it is “binds”; for B5 it is “binds”. On the same count and under the same terms, the value for B6 was “binds”; that for B7 was “binds”; that for B8 was “binds”. As for B9, the binding result was “binds”. The same measure, in the same setting: the entry for B10 is “binds”; for B11 it is “binds”. The same measure, in the same setting: the value for B12 was “binds”. As to B13, the binding result is on record as “binds”. Same read-out and setting: the entry for B14 is “binds”; for B15 it is “binds”. In the case of B16, the binding result is recorded as “binds”.

The target in the next test is T2, TRPV4^WT N-terminal domain (IDR and ARD, amino acids 1-397) (human, UniProt Q9HBA0 1-397).
T2 construct: TRPV4, human, N-terminal domain (IDR and ARD), amino acids 1-397; also called TRPV4^WT N terminus; full N terminus; source: E. coli BL21(DE3), purified; not shown: His6, C-terminal, kept; V5, C-terminal, kept
Described as above. The settings on record: both partners purified.
In the case of B17, the binding result is “binds”.
